What is called pKi is the negative decadic logarithm of the Ki, by convention in mol/L.

The target of the test is human RXFP4 on stably transfected CHO-K1 cells (human) (UniProt Q8TDU9). Nature of the test: competitive binding of a europium-labelled ligand on cells.
Sequence of UniProt Q8TDU9 (Q8TDU9 whole entry): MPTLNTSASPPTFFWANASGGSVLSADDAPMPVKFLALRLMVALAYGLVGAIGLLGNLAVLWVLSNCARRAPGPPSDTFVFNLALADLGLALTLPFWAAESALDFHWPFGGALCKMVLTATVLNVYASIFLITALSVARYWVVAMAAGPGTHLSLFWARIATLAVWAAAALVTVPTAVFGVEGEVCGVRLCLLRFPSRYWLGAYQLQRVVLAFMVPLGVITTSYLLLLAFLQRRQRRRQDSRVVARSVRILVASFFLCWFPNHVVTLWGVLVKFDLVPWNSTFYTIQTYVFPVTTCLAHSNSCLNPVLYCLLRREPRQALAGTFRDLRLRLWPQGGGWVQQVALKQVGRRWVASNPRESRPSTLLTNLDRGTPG

For the substance “recombinant two-chain human insulin-like peptide 5 (INSL5) (ligand)”, the pKi is 8.19.

The values above are taken from publication doi:10.1101/2022.07.28.501832.
